Measurements from the supplement of paper PMC9732359.
± gives the uncertainty stated by the source.

Assay: protein stability index of a GFP-peptide fusion (yeast GPS) (PSI 1-4); higher = more stable; sorted into four equal gates, so the index is relative within each strain
Outline: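 The protein stability index of a peptide was calculated by multiplying its read frequency in each gate by that gate's number and adding the products. The peptides were tiled 17-residue stretches of yeast proteins, fused downstream of GFP on a Cherry-expressing plasmid and carried in yeast as a pooled library. Mid-log cultures in leucine-free medium were sorted into four equal gates by GFP/Cherry ratio, and each gate's plasmids were PCR-amplified and Illumina-sequenced.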

Sequence | protein stability index (doa10∆) | protein stability index (pdr5∆) | protein stability index (san1∆) | protein stability index (ubr1∆)
HSVQETNKISPKDFSPN [SSN2] | 3.37 ± 0.094 | 2.68 ± 0.078 | 2.93 ± 0.054 | 3.11 ± 0.07
HTKFEVAIGLNGKIWVK [RRP40] | 2.18 ± 0.084 | 2.48 ± 0.065 | 2.39 ± 0.072 | 2.56 ± 0.055
HVKNFGFANSLTFILGQ [YML031W/NDC1] | 1.56 ± 0.12 | 1.74 ± 0.076 | 1.42 ± 0.13 | 2.27 ± 0.059
HVKQCQETCDKLRARLV [SMC2] | 2.2 ± 0.18 | 2.74 ± 0.14 | 2.34 ± 0.11 | 2.21 ± 0.06
HVLNKVTLASILTTAVG [RPN1] | 1.72 ± 0.14 | 1.41 ± 0.079 | 1.46 ± 0.21 | 1.31 ± 0.19
HVLSRLSYISALGMMTR [RET1] | 1.35 ± 0.073 | 1.32 ± 0.053 | 1.24 ± 0.13 | 1.33 ± 0.073
HVLYKESKGNAFKHKRA [RPL19A] | 2.97 ± 0.079 | 2.49 ± 0.12 | 2.59 ± 0.08 | 2.46 ± 0.044
HWLQLAKGVYRPNGRKD [POP1] | 2.68 ± 0.06 | 3.12 ± 0.049 | 3.2 ± 0.034 | 3.15 ± 0.049
HYGLAVDIYTHFTSPIR [DIS3] | 1.56 ± 0.042 | 1.86 ± 0.052 | 1.61 ± 0.064 | 1.84 ± 0.039
HYGNEHIRRMVPLAMGI [RPN1] | 1.29 ± 0.082 | 1.33 ± 0.064 | 1.24 ± 0.091 | 1.47 ± 0.065
HYGQTLGKKKNVKEEET [RPS8A] | 2.62 ± 0.035 | 2.84 ± 0.035 | 2.38 ± 0.033 | 2.879 ± 0.026
HYLVLLVAKFLYPIFLL [YJR042W/NUP85] | 1.4 ± 0.035 | 1.22 ± 0.032 | 1.11 ± 0.071 | 1.13 ± 0.026
IAATQDFITGSYLISHK [RPO31] | 3.03 ± 0.083 | 3.14 ± 0.085 | 2.83 ± 0.093 | 3.13 ± 0.038
IACVLTVINEQQREAVR [RPL35A] | 1.73 ± 0.057 | 2.12 ± 0.068 | 2.18 ± 0.08 | 2.23 ± 0.066
IAGFDLIGCIDEAKDFI [PUP3] | 3.17 ± 0.11 | 3.33 ± 0.13 | 3.08 ± 0.073 | 3.21 ± 0.055
IAGINKKKGLDENTSGK [PRP28] | 3.48 ± 0.067 | 3.47 ± 0.089 | 3.44 ± 0.056 | 3.6 ± 0.075
IALILAIQMVDPASFYL [SMC3] | 1.16 ± 0.05 | 1.25 ± 0.055 | 2.1 ± 0.12 | 1.98 ± 0.063
IALMGQDNKKIYVHVRR [ESC2] | 2.33 ± 0.081 | 2.57 ± 0.12 | 2.47 ± 0.17 | 2.53 ± 0.068
IAPPVAPHDSEATLLTN [SNF5] | 2.99 ± 0.066 | 2.82 ± 0.068 | 2.93 ± 0.043 | 2.83 ± 0.049
IAQGIDLVRDIDIDKLI [SRP72] | 1.65 ± 0.14 | 1.23 ± 0.12 | 1.58 ± 0.21 | 1.1 ± 0.16
IASLERELILAKKQNYK [YCG1] | 2.6 ± 0.07 | 3.07 ± 0.06 | 2.14 ± 0.084 | 2.42 ± 0.041
ICDPVHKHREARGLTAT [RPL15A] | 3.49 ± 0.12 | 2.81 ± 0.14 | 2.93 ± 0.13 | 3.26 ± 0.099
ICLMTLIETVFVKNIRM [RPN9] | 1.22 ± 0.064 | 1.3 ± 0.069 | 1.22 ± 0.13 | 1.35 ± 0.074
IDDNYIVVVIEIITSLS [SRB8] | 2.6 ± 0.11 | 2.87 ± 0.081 | 2.16 ± 0.082 | 2.22 ± 0.086
IDEAHRIKNEQSALSQI [ISW2] | 2.6 ± 0.1 | 2.17 ± 0.091 | 1.67 ± 0.089 | 3 ± 0.069
IDHINEESWEKVVEFAI [SCL1] | 2.78 ± 0.07 | 3.08 ± 0.082 | 3.03 ± 0.068 | 2.91 ± 0.06
IDKITDGLGNVVDFTSL [YMR129W/POM152] | 3.41 ± 0.11 | 3.53 ± 0.13 | 3.37 ± 0.061 | 3.45 ± 0.1

Sequence | protein stability index (doa10∆) | protein stability index (pdr5∆) | protein stability index (san1∆) | protein stability index (ubr1∆)
IDMDKLNTVLIADLDTE [RRP43] | 2.66 ± 0.099 | 3.02 ± 0.07 | 2.83 ± 0.066 | 3.22 ± 0.057
IDNLKDTLKENATEVQK [ITC1] | 2.66 ± 0.05 | 2.87 ± 0.068 | 2.92 ± 0.05 | 2.88 ± 0.05
IDVTFTKVNNQLIKVAV [RPL9A] | 2.23 ± 0.068 | 1.87 ± 0.048 | 1.75 ± 0.087 | 2.44 ± 0.036
IDYKLRVLTQDGRVYIG [SMB1] | 2.49 ± 0.09 | 2.71 ± 0.076 | 1.67 ± 0.11 | 2.5 ± 0.048
IEALYDDDTFSDREMAA [RPN2] | 2.19 ± 0.066 | 1.89 ± 0.051 | 1.57 ± 0.1 | 2.13 ± 0.054
IEKMSTIVQLCKKKEMS [YIL149C/MLP2] | 1.8 ± 0.059 | 1.78 ± 0.055 | 1.59 ± 0.099 | 1.76 ± 0.051
IERYPSKVTKKHGAKKV [RPL27B] | 3.26 ± 0.074 | 3.49 ± 0.095 | 3.43 ± 0.061 | 3.31 ± 0.059
IESALKSKLDQDSTSEN [RPN2] | 2.76 ± 0.072 | 3.04 ± 0.073 | 2.87 ± 0.076 | 2.95 ± 0.1
IETVMTQEQFVKRRRDM [SRB4] | 2.94 ± 0.22 | 3.24 ± 0.12 | 2.92 ± 0.1 | 2.49 ± 0.26
IFALCIYNSTDSNSEIL [YML103C/NUP188] | 1.39 ± 0.17 | 2.19 ± 0.075 | 1.87 ± 0.14 | 1.95 ± 0.086
IFFDEIDAVGGARFDDG [RPT1] | 3.01 ± 0.17 | 2.77 ± 0.15 | 3.24 ± 0.088 | 3.11 ± 0.089
IFKIVQSRLMSTSYHLN [MED6] | 2.25 ± 0.18 | 2.23 ± 0.13 | 1.31 ± 0.096 | 2.31 ± 0.094
IFVSILSDRANKNQDAF [ARP9] | 2.85 ± 0.057 | 2.39 ± 0.058 | 2.53 ± 0.066 | 2.87 ± 0.056
IFWGIRLAKSTENEIPN [BRR2] | 1.42 ± 0.089 | 1.43 ± 0.055 | 1.18 ± 0.13 | 1.49 ± 0.064
IGDTIADGPTMREITET [RPO21] | 3.48 ± 0.11 | 3.52 ± 0.092 | 3.52 ± 0.045 | 3.39 ± 0.059
IGDVDGLIVNPVKVSGT [POP5] | 2.73 ± 0.048 | 3.02 ± 0.046 | 2.66 ± 0.035 | 2.64 ± 0.035
IGDYILKSPVLSKLCVP [QCR7] | 1.55 ± 0.061 | 1.36 ± 0.078 | 1.56 ± 0.11 | 1.69 ± 0.058
IGGLIPQWKRHLEEYGY [YCS4] | 2.47 ± 0.068 | 2.83 ± 0.065 | 1.9 ± 0.14 | 2.9 ± 0.057
IGIDEGSDEAYVKDARK [RPC40] | 3.48 ± 0.074 | 3.38 ± 0.076 | 3.19 ± 0.051 | 3.5 ± 0.054
IGIPVNKASLAQYEVLA [QCR2] | 2.52 ± 0.06 | 2.42 ± 0.049 | 1.92 ± 0.088 | 2.81 ± 0.043
IGLDTQQVEGKLSQMIL [RPN6] | 2.95 ± 0.066 | 3.05 ± 0.069 | 3.04 ± 0.071 | 3.06 ± 0.056
IGLRQFQQIQYENKQLY [POP1] | 2.84 ± 0.085 | 2.81 ± 0.061 | 2.92 ± 0.048 | 2.79 ± 0.047
IGQAVQPKRNLSRYVKW [RPL8A] | 2.69 ± 0.065 | 2.97 ± 0.043 | 2.72 ± 0.047 | 2.66 ± 0.047
IGQFLEPIDQNTGIVSS [RPT3] | 2.48 ± 0.2 | 2.82 ± 0.11 | 2.14 ± 0.17 | 2.85 ± 0.066
IGTNDLFQVESAPKISS [SIR4] | 2.42 ± 0.049 | 2.9 ± 0.047 | 2.63 ± 0.047 | 2.43 ± 0.035
IGVIAGGGRVDKPLLKA [RPL2A] | 3.2 ± 0.088 | 3.16 ± 0.09 | 3.05 ± 0.11 | 2.98 ± 0.066
